The values that follow come from patent US20240042018A1 (University of Washington, published 2024).

Experiment [1] has as its target T1, I53_dn5B trimer.
T1 chain: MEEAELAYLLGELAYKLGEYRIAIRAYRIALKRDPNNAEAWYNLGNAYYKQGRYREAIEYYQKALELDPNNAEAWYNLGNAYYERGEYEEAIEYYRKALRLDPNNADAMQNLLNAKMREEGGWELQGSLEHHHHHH
The experiment in a line: nanoparticle assembly grade, Table 3.

Another experiment deals with T2, I53_dn5B_2gly trimer (N-linked glycans at PNGS 32-YDNLT-36 and 89-NAT-91).
T2 chain: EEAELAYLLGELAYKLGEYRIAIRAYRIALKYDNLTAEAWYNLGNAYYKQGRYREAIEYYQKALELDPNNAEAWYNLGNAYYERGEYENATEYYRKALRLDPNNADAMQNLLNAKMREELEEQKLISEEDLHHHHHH
The experiment in a line: in vitro nanoparticle assembly, SEC and SDS-PAGE.

Experiment [2] has as its target T1, I53_dn5B trimer. The experiment is described as follows: in vitro nanoparticle assembly, SEC and SDS-PAGE.

B1: I53_dn5A_2gly pentamer (designed binder)
chain: KYDGSKLRIGILHARGNAEIILELVLGALKRLQEFGVKRENIIIETVPGSFELPYGSKLFVEKQKRLGKPLDAIIPIGVLIRGNDTHFDYIADSTTHQLMKLNFELGIPVIFGVLTTNSTEQAEERAGTKAGNHGEDWGAAAVEMATKFNLEEQKLISEEDLHHHHHH
For the molecule B1, the binding result with I53_dn5B trimer [1] and with I53_dn5B_2gly trimer was “binds” in each case.

B2: I53_dn5A_1C5kPEG pentamer (designed binder)
chain: MGKYDGSKLRIGILHARGNAEIILALVLGALKRLQEFGVKRENIIIETVPGSFELPYGSKLFVEKQKRLGKPLDAIIPIGVLIRGSTPHFDYIADSTTHQLMKLNFELGIPVIFGVITADTCEQAEARAGLIEGKMHNHGEDWGAAAVEMATKFNGGWELQLEGSHHHHHH
For the molecule B2, the binding result with I53_dn5B trimer [2] is “binds”.
